T1: FoxP1 RBR-FKH;NFAT1 (Mus musculus;Mus musculus, UniProt P58462;Q60591 427-579;394-680, |)
T1 sequence 1: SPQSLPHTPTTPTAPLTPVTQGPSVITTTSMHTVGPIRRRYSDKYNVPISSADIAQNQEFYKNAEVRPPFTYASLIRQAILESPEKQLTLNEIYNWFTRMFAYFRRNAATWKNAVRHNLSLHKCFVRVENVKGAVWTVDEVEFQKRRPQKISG
T1 sequence 2: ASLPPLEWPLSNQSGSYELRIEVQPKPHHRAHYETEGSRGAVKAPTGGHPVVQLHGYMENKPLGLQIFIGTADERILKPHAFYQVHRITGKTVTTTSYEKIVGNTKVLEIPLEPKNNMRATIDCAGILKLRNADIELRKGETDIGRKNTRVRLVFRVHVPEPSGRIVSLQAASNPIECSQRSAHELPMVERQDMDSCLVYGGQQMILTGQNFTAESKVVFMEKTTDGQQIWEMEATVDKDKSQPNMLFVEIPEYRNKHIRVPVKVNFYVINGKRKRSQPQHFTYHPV

T2: FoxP3 RBR-FKH;NFAT1 (Mus musculus;Mus musculus, UniProt Q99JB6;Q60591 284-423;394-680, |)
T2 sequence 1: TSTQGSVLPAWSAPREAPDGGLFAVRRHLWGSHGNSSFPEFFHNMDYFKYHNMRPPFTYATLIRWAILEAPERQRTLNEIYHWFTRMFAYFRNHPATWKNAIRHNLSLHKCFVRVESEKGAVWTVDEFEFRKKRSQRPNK
T2 sequence 2: T1 sequence 2

B1: sFKHM (DNA2) (dsDNA)
DNA 1: TAGGAAAATTTGCCGCGTCGAGTAAACATC
DNA 2: GATGTTTACTCGACGCGGCAAATTTTCCTA
B2: IR-FKHM (DNA1) (dsDNA)
DNA 1: TAGGAAAATTTGTTTACTCGAGTAAACATC
DNA 2: GATGTTTACTCGAGTAAACAAATTTTCCTA

How the values were obtained:
Details in all cases: protein: recombinant;recombinant; tags: His6-NusA removed by HRV3C;His6-NusA removed by HRV3C; copies: 1;1
FoxP1 RBR-FKH;NFAT1 = molecular target: T1, FoxP1 RBR-FKH;NFAT1; test: EMSA; NFAT 0.4 uM; FoxP1 monomer; EMSA: 20 mM HEPES pH 7.5, 150 mM NaCl, 1.5 mM MgCl2, 2 mM DTT, 4 C, 0.2 uM DNA; pull-down: 20 mM Tris-HCl pH 7.5, 100 mM NaCl, 1.5 mM MgCl2, RT, 0.4 uM protein, 0.1 uM DNA
FoxP3 RBR-FKH;NFAT1 [1] = molecular target: T2, FoxP3 RBR-FKH;NFAT1; test: EMSA; NFAT 0.4 uM; FoxP3 monomer; EMSA: 20 mM HEPES pH 7.5, 150 mM NaCl, 1.5 mM MgCl2, 2 mM DTT, 4 C, 0.2 uM DNA; pull-down: 20 mM Tris-HCl pH 7.5, 100 mM NaCl, 1.5 mM MgCl2, RT, 0.4 uM protein, 0.1 uM DNA
FoxP3 RBR-FKH;NFAT1 [2] = molecular target: T2, FoxP3 RBR-FKH;NFAT1; test: EMSA; NFAT 0.4 uM; FoxP3 dimer; EMSA: 20 mM HEPES pH 7.5, 150 mM NaCl, 1.5 mM MgCl2, 2 mM DTT, 4 C, 0.2 uM DNA; pull-down: 20 mM Tris-HCl pH 7.5, 100 mM NaCl, 1.5 mM MgCl2, RT, 0.4 uM protein, 0.1 uM DNA

| Binder | binding result (FoxP1 RBR-FKH;NFAT1) | binding result (FoxP3 RBR-FKH;NFAT1 [1]) | binding result (FoxP3 RBR-FKH;NFAT1 [2]) |
| --- | --- | --- | --- |
| B1 | binds | binds |  |
| B2 | binds |  | binds |
